T1: IRE1^LD-GST (human, UniProt O75460 19-486)
T1 construct: IRE1α, human, entire luminal and transmembrane domains, residues 19-486; the cytosolic effector domain is replaced by GST; also called IRE1α luminal and transmembrane domain fused to cytosolic GST; source: ΔERdj4 CHO cells, transfected, in lysate; not shown: GST, C-terminal, kept
T1 sequence (looked up): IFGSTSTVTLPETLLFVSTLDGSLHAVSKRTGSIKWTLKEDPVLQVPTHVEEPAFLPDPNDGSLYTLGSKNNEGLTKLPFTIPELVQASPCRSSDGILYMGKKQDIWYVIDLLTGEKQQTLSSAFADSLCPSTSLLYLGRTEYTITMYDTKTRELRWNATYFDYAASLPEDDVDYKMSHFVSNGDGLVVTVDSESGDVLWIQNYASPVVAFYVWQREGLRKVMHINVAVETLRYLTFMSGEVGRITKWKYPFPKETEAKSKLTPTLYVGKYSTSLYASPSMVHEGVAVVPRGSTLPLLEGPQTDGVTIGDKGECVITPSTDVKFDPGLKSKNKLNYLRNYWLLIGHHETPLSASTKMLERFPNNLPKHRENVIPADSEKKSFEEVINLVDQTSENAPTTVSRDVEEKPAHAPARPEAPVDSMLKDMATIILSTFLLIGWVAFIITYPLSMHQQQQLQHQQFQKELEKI


Assays:
[1] = target: the molecule itself; experiment: cross-linking; spontaneous Q105C-Q105C disulfide of IRE1^(LD Q105C)-GST in transfected ΔERdj4 CHO cells (alone or with ERdj4 or ERdj4^QPD); glutathione Sepharose; non-reducing SDS-PAGE and immunoblot
IRE1^LD-GST = target: T1, IRE1^LD-GST; experiment: pull-down; GST fusions recovered on glutathione Sepharose 4B from lysates of transfected ΔERdj4 CHO cells (co-transfected with ERdj4, ERdj4^QPD or ERdj6 where indicated); ATP-depleting lysis buffer; endogenous BiP by immunoblot; where indicated beads incubated 5 min with 3 mM ATP; conditions: partners not purified

Row | Binder | fold decrease of the disulfide-linked dimeric fraction with co-transfected WT ERdj4 [1] [fold] | stoichiometry N [1] | fold recovery of BiP with co-transfected WT ERdj4 against ERdj4^QPD (IRE1^LD-GST) [fold]
1 | IRE1^(LD Q105C)-GST (domain or fragment, human, UniProt O75460 19-486, looked up, Q105C-Q105C disulfide between two copies in the dimeric species, IRE1α, human, luminal and transmembrane domains as in IRE1^LD-GST (residues 19-486), with Q105C; a modified version of IRE1^LD-GST; source: ΔERdj4 CHO cells, transfected, in lysate; not shown: GST, C-terminal, kept) IFGSTSTVTLPETLLFVSTLDGSLHAVSKRTGSIKWTLKEDPVLQVPTHVEEPAFLPDPNDGSLYTLGSKNNEGLTKLPFTIPELVCASPCRSSDGILYMGKKQDIWYVIDLLTGEKQQTLSSAFADSLCPSTSLLYLGRTEYTITMYDTKTRELRWNATYFDYAASLPEDDVDYKMSHFVSNGDGLVVTVDSESGDVLWIQNYASPVVAFYVWQREGLRKVMHINVAVETLRYLTFMSGEVGRITKWKYPFPKETEAKSKLTPTLYVGKYSTSLYASPSMVHEGVAVVPRGSTLPLLEGPQTDGVTIGDKGECVITPSTDVKFDPGLKSKNKLNYLRNYWLLIGHHETPLSASTKMLERFPNNLPKHRENVIPADSEKKSFEEVINLVDQTSENAPTTVSRDVEEKPAHAPARPEAPVDSMLKDMATIILSTFLLIGWVAFIITYPLSMHQQQQLQHQQFQKELEKI | 2.5 | 2 | –
2 | endogenous BiP (CHO cells) (natural protein, BiP, the ER luminal Hsp70, Chinese hamster, endogenous in CHO cells; detected by immunoblot with anti-hamster BiP serum; source: endogenous, CHO cell lysate) not shown | – | – | 2.5
